{"source": "paper PMC10157364", "binders": {"B1": {"name": "human MIF treated with 0.2% Proclin300 (oxMIF surrogate) (natural protein)", "chain": "MPMFIVNTNVPRASVPDGFLSELTQQLAQATGKPPQYIAVHVVPDQLMAFGGSSEPCALCSLHSIGKIGGAQNRSYSKLLCGLLAERLRISPDRVYINYYDMNAANVGWNNSTFA", "modifications": "treated with 0.2% Proclin300 to transform MIF into an oxMIF surrogate"}}, "key": {"[1]": {"target": "ON103 and ON203 versus C0008 (SPR, Fig. 1D)", "test": "SPR; Biacore 3000; antibodies amine-coupled to CM5 chips (about 2,500; 1,500; 1,000 RU); MIF at 42-666 nmol/L in HBS-EP with 0.2% Proclin300 (3 hours, room temperature), 30 uL/minute; Langmuir 1:1 model with mass transfer; mean of flow cells 2-4"}, "[2]": {"target": "all anti-oxMIF antibodies (quantitative oxMIF ELISA, Fig. 1C)", "test": "ELISA; quantitative oxMIF ELISA: 15 nmol/L C0008, ON103 or ON203 as capture antibodies; human or mouse MIF in buffers with 0.2% Proclin300 as standard curves; EC50"}}, "data": [{"binder": "B1", "values": [{"measurement": "Kd", "setting": "[1]", "result": "3.5 to 6.1", "unit": "nM"}, {"measurement": "EC50", "setting": "[2]", "result": "0.6 to 0.7", "unit": "nM"}]}]}
